Laboratory results: publication PMC6952110, “A divergent CheW confers plasticity to nucleoid-associated chemosensory arrays” (PLoS Genetics, 2019)

Molecular target: T1, 6His-FrzCD (M. xanthus, UniProt P43500 1-417)
T1 construct: FrzCD, cytoplasmic methyl-accepting chemotaxis protein of the Frz system, Myxococcus xanthus; also called cytoplasmic MCP of the Frz system; source: E. coli BL21(DE3); in lysate (co-purification) and purified on NiNTA resin (BLi)
T1 sequence (looked up): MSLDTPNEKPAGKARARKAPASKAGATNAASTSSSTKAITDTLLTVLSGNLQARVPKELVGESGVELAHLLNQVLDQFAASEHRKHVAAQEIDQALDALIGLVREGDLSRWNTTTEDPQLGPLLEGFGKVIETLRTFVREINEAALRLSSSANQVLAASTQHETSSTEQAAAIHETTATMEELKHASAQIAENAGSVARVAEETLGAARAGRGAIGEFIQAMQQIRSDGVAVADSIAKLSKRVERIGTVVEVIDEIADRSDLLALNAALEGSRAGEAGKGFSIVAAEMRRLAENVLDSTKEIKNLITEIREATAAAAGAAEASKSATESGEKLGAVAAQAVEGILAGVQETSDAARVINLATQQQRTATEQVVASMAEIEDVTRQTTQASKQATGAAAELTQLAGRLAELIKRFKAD
Assay: BLI; BLItz, 25°C; 6His-tagged ligand immobilised on Ni-NTA biosensors at 4 μM; GST-FrzB as analyte at 0.2 to 20 μM; Tris HCl 50 mM pH8, NaCl 300 mM; global 1:1 fit; double reference subtraction
Details: both partners purified

B1: GST-FrzB (natural protein, M. xanthus, UniProt P43499 1-112, looked up)
chain: MDLLFFDIGATLYGTDASQVLRIDRALPEDLTLAELGLPHRGNRAIVFDTPEGEAHLKVDAVHGVRSIPVNSLRRMPPTAGAAAYAVGVCLEEARTVLLIDLVETARTQGRH
notes: FrzB, CheW-like protein of the Frz chemosensory system, Myxococcus xanthus, Uniprot P43499; also called divergent CheW; source: E. coli BL21(DE3)
  Kd: 700 nM
